In the domain aggregation screens of Martell et al. (2025):

experiment: soluble fraction after stress (log2 fold change); higher = more stays soluble; pooled small domains, quantitative proteomics; conditions: stress: 50 degC
In short: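 Quantitative proteomics served as the high-throughput read-out for pooled custom libraries of small protein domains. Each was stressed at 50°C. Aggregation propensity is expressed as the base-two log fold change in soluble protein after stress. A higher value means a larger share of the protein remains in solution.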

Sequence	soluble fraction (log2)
HMTDDPGLSRAENRELQTLLLDRGHDIGQPDGLIGAKTRAAIRAEQSRLNMPVNGRGGQKLLRALRL	0.372
HMEKVLPFEFERKFKTNHTAWDFFSNQAPPSYRKTVIHWILSAKQEITRISRLEKLIAASEQQKRI	-0.319
HMQTTPAGHELLIRYFANGNIRERGMMKDGKRNGIWIFYDESGMEIRKTKYKMGKIISDYDLN	-1.07
HMGQDLEAFLLKAVGQLDQGDGVTLDALLKVAVSNGGFVREVAEAKLDDMLDAGTLDEPRFGWFRVGAT	-0.742
HMKKYLNIYNIIVNKIESKEYQSNDKLPSEKELMDQYNVSRDTVRKSLNMLEQNGYIQKTKGKGSFVLDIN	-0.634
HMKLPNSFGSIQKLSGNRRKPYRVVKTIGWDENGKQIRKTLGYYETRAKALQELALFNEKPYD	-0.804
HMYYNQGILKSGASVYGEPGITSSHRLEIPSGSFVDIVQEKDEWVYYEKNHVNHGWVLRENIYIPSL	0.0681
HMPLEKGVVILDVTPSSAKVAVDGTSVETTYPLRLSAGLHQLSAEADGYDSITEYFKVETEKTTVTLDLSK	0.105
HMGLDMSLEREQHRALREASQWYARLADEQVDSDAERAWRHWVAADEANQRAWQYIEAVSQRFDG	-0.315
HMEETLLLRESVRSALAMLAPTLRITLEMYVYRQLSPTEIALRSGVSISMVRRRLGYGLYKLRTQLIDA	-0.138
HMAEQEELDAIRPDLDGQEIMDILGIKPGREVGAARNFLLELRLDEGPLGYDEAVSRLLTWWAERT	-0.13
HMAEPTLNERLREALSDPAKLKIAKAIKAKYPIITARDIDTFLNMHEKDIENGADPMDEFEEFFHANY	0.127
HMSDRLRLGRRIRAARLEQNLSQAALAERLGISASYLNLLEHDRRSLTTVLLLKLAQVLGLELRDLAAG	-1.99
HMRSTIYEFTVPPGQLESIRLDVYITSFVENATRSKVQEAIKQGYVWVNGKHEKASYTMLPGDKIYIELPI	-1.79
HMEDQITNQQFTMTKQSILDLLVKKSYPPYELANELHLKKEEVLPIIRFLIAENEIHFKDGMLHLPH	-0.167
HMTEPIESVTTIAGRRIPYRLVRSLRARRMRMTIKESQVTVTLPRGVPLGEAERFLQQNAAWLFKQLDKP	-2.22
HMAETLLWADAAQEGLNRIVAAQPILVRISAAKRLRDASEQAAKAAGVSTVEIGHVQHASESLQFGDA	0.165
HMNTEEITYSRFQQMLEAGEISQVSIESNRILILPSEETGIEKVLYTGIINDPGLVERLNSAGVEFRAPIE	-0.00156
HMNDGTIRVGTNVTIKPSAKRWATGQNIYYGVKGKTYKVIQMNGNRLLLDKVISWINKGDVYVPGS	-0.501
HMNADRIVGQTAKVIHPITPDEKGRVMVDNLDWAAAAQNRGESFEVGEEVSIVRIEGVTVYVQK	0.209
HMVKEVKVPDVEGLTTEEAIKELKKYGLAYTTKSEENTDIEEGKVIRTEPKKGSTKVKGSTVTIIESSG	-0.169
HMEMDITIQMRTLVEELNRASDAYYNGRGELMTDYEWDAKFDQLKQLESQSGVVLPDSPTHRV	-0.162
HMIKRNPLDEIEGVGPGRKKALLHAFGSAKGVSRASVVDLVKVEGVSQALAERIHDFFHPATR	-0.113
HMPFREGDEVFVELVEPHMYNEDDAVAKLDGYVVAVRGAAGLVGQKVLVRIERVGRSSAEATLVA	0.109
HMGRGSEDEQMRGLAVILAEQKQIMQTLGVENEVVKPEQYINTLKRMAELNGFKDTDQFFSIPQ	0.339
HMENLRLSELTVERGHRLAGRTLADIASAPNSPKYLIVLIQRGQETVIPTGSTVILPGDVLILAQS	-0.605
HMDGDVAVKGGDGVLEVRLANAANVRVYNLAGRLMADYTGTELHMPLPKGVYMVVAGDNRTKVVV	0.074
HMISKQQRQALILDIIQKQSITSQEALLTELQRHHVMTTQTTVSRDIRALGIVRIKDVNGELSYQQLQ	-2.5

Sequence	soluble fraction (log2)
HMDLAPLQTVDIAINYAKAAELAAILKSSEGGILSDRGGVTVDERTNTLLIRDTLESIDEARKTI	0.122
HMDKLEKRILDYLLQKSAIDGSTILKISHREMAMDLGTAREVVTRILKKLETGGFVRQGENYLEILK	-0.145
HMGDFLLQVDFPPALLEMLPEGKRQAAIGVLSHDPRPAYQRTPGRVYGLNFAGHNIRFAVSENLLTVLEV	-2.08
HMVTVQEGETLSAIAARSGVSVKDLVRANEIRNPDSIQEGQVLFVP	0.0612
HMEPPAPAPDIPYPSRVTVRREVDGWPHYYGTWTRTPPVLGYEGIWLVGVSLDGKVQFVPVDDVTIA	-0.627
HMHPMVEAYLADLDRALSGSDPREHAETMSAVREHLADAIAPDATAEQVRHALDELGPVEAIAAG	0.0172
HMYAHLGKNLEVVINKALAQEDPEKKAGFAHHIAYYMKLAYSNWHKELVHDDAIRSELDTITGGELEFSN	0.499
HMLKRLTVEFSAEMPKKMTSEQKEELASVLSEDPRPAYQNDENREYGLDYGEFSVKFKVKDGVLTVTSVTE	-0.0668
HMAAPELLTVRERQVAALISDGLSNQQIAHRLHLEVTTVKAHIGSIFNRLDMNNRVQIAIWAHDRQLVFS	-0.266
HMPTERLSMRRIRELLRLRFEVGLSTRLIATALGISKGAVGDYLQRAQVAGLGWPLPENLNDAALERRLFP	-0.681
HMLGNIERALEMLQEVAATMDPVDIRLLLSMAQVESVRGNTEAAVKLIDEALVIDPGNERIEQIRLRVL	-0.558
HMVQDSEWWRNYQSAHDYFIQNGHLNVLRSDKKNTKLYNWIVGQRSSRWNSQGRINLLNSIGFIWDT	-3.08
HMRMTPRQALDDLIREREETYAAVSRLLGRNTAYIQQYIKRGTPARLDQSDIAQLALHFDVPAKLLGGKE	-0.943
HMHWDIAQADAKQEVMDSSDDKEAIERIQANMFKDPKDHDQEYANKILNDMIDEIKEKGLEAMQHKFAQE	-0.379
HMREVTVGSAVRLKKGAKTYSGGSLASFVYERNHQVTQLSGDRAVISFKGTVVAAVHKDDLIL	-0.916
HMHYELTPDAEKQLSALGLTAELVERILEEANDRRPIPGTNRTVYSLHGYSVEFSNTNHKIVSVRKG	-0.219
HMAYSEEERNLIRSRLKDVAAALFKEKGIRDTNIDEIYTPVGISKTFFYSFFPSKAVLAIAIMK	0.0382
HMPYNNLADAPASWKKLDDTPLTLGQVNWIAKIYDALVAKGMEKGAAAGTAISRFKKSFKVADGKWVQV	-0.0698
HMDGTAKVAHMLVNELETFNRLKKHEIAYMLHIQPETLSRILNKLTRNGTIEIEKNSVVILNIQELKEIY	-1.55
HMGREVVVPNLAGIEKEVALDLLKKNRLGGMITGTRFSSDFPAGQVIQQMPEAGSRVKVGKQVKLVLSEG	0.323
HMSEQIALQFAKAKQHHTGIALKGIEALELRYKGYTGKEIAALYHTSPKSVFSWISRAKQKLRQN	-0.375
HMDHSSLIKKLRLERGLSQKKLAQGISQRSTLASFENNATKISYNILIQYLDRMNVTLEEYQFMLDGNNL	-2.06
HMTYTMVAYGSQGDAVRQLQSELNRHGYQLDEDGVFGKKTRAAVRDYQKKNSLRLDGIAGDETWGSLLA	0.324
HMSEIKDRLREARRNKGLSQAGLSKLLGVSQASIAAIESGRNKRPTNLVSIAKALDVSPYWLETGK	-0.124
HMGQYSTTLDKIENSLFGFTYSNEAENTRINRIENKVYGKTSTSQTSTRIAKLKKDLSVDEMG	0.0362
HMIQTMVVTDLKNGTIFKENGHPFIVLKYEHIKVSRGSAQVRVKMKNLITGQVLEKSWQSTAHVDDT	-2.1
HMQDYYTQSDFARYLEDKGIHFPQNKIAVYRKRGKFPKEDLVVAGTPYWSKYTVESFAKHLLEQQN	0.0719
